Like-named read-outs stand apart in the source and are kept apart here.
B4: RBBP5 WD40 propeller (residues 2–333) (domain or fragment)
chain: NLELLESFGQNYPEEADGTLDCISMALTCTFNRWGTLLAVGCNDGRIVIWDFLTRGIAKIISAHIHPVCSLCWSRDGHKLVSASTDNIVSQWDVLSGDCDQRFRFPSPILKVQYHPRDQNKVLVCPMKSAPVMLTLSDSKHVVLPVDDDSDLNVVASFDRRGEYIYTGNAKGKILVLKTDSQDLVASFRVTTGTSNTTAIKSIEFARKGSCFLINTADRIIRVYDGREILTCGRDGEPEPMQKLQDLVNRTPWKKCCFSGDGEYIVAGSARQHALYIWEKSIGNLVKILHGTRGELLLDVAWHPVRPIIASISSGVVSIWAQNQVENWSAFA

Legend:
[1] = system: RBBP5 2-325 (Homo sapiens); test: fluorescence polarization; settings: FP: 20 mM HEPES pH 7.4, 150 mM NaCl, 0.1% BSA, 0.1 uM DNA, 25 C, 30 min; EMSA: 20 mM Tris-HCl pH 8.0, 150 mM NaCl, 10% glycerol, 0.1 uM nucleosome, on ice 1 h …
[2] = system: RBBP5 CTD3 (Homo sapiens); test: fluorescence polarization; settings: FP: 20 mM HEPES pH 7.4, 150 mM NaCl, 0.1% BSA, 0.1 uM DNA, 25 C, 30 min; EMSA: 20 mM Tris-HCl pH 8.0, 150 mM NaCl, 10% glycerol, 0.1 uM nucleosome, on ice 1 h …
[3] = system: RBBP5 full-length (Homo sapiens); test: fluorescence polarization; settings: FP: 20 mM HEPES pH 7.4, 150 mM NaCl, 0.1% BSA, 0.1 uM DNA, 25 C, 30 min; EMSA: 20 mM Tris-HCl pH 8.0, 150 mM NaCl, 10% glycerol, 0.1 uM nucleosome, on ice 1 h …
[4] = molecular target: B4; test: ITC
[5] = molecular target: T1, RBBP5 WD40 propeller (residues 2–333) (human, UniProt Q15291 2-333); test: ITC; RBBP5 C-terminal constructs, RBBP5_(390–480d) or its mutants (1 mM) injected into 0.1 mM RBBP5_(2–333); 300 mM NaCl, 25 mM Tris–HCl pH 8.0; 20°C; one-site model; settings: both partners purified
T1 construct: source: Rosetta cells, purified (Ni-NTA, on-beads Ulp1 digestion, SEC)

[6] = molecular target: T2, RBBP5_(390–480d) (C-terminal distal region 390–480 with the 422–443 loop deletion) (human, UniProt Q15291 390-480, 422–443 loop deletion); test: ITC
[7] = molecular target: T2, RBBP5_(390–480d) (C-terminal distal …); test: ITC; remark: listed apart in the source
[8] = molecular target: T3, RBBP5 WD40 propeller with residues 10–325 (RBBP5_(10–325)) (human, UniProt Q15291 10-325, selenomethionine (Se-Met derivative protein)); test: crystal structure; RBBP5_(10–325) and RBBP5_(390–480d) mixed at 1:2 and purified by SEC; crystals in 0.1 M HEPES-Na pH 7.5, 2% PEG 400, 2.0 M ammonium sulfate, 16°C; Se-Met SAD, 1.8 Å; settings: both partners purified
T3 construct: RBBP5, human, residues 10-325 (WD40 propeller); native and Se-Met complexes were both crystallised; the solved dataset is of the Se-Met crystal; also called SeMet RBBP5_(10–325); source: Rosetta cells (Se-Met derivative grown in M9 minimal media), purified (Ni-NTA, on-beads Ulp1 digestion, SEC)

[9] = molecular target: T4, RBBP5 WD40 propeller (residues 2–333), Q15291; test: ITC; settings: chain shown with the change; 25mM Tris–HCl, 300 mM NaCl, pH 8.0
T4 chain: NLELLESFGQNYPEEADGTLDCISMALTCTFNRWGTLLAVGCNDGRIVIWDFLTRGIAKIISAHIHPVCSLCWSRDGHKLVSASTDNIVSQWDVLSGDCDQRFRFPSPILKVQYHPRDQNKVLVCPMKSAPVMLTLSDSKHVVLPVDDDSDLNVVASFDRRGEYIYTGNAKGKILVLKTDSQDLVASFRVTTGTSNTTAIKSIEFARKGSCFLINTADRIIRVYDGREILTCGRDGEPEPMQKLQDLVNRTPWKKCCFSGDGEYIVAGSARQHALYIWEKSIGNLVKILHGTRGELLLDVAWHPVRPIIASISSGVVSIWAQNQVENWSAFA

[10] = molecular target: B4; test: ITC
[11] = molecular target: B4; test: ITC; 300 mM NaCl
[12] = molecular target: B4; test: ITC; 800 mM NaCl
[13] = molecular target: T1, RBBP5 WD40 propeller (residues 2–333); test: ITC; RBBP5_(381–538) (1 mM) titrated into 0.1 mM RBBP5_(2–333); 150 mM NaCl, 25 mM Tris–HCl pH 8.0 (300 and 800 mM NaCl also tested); 20°C; one-site model; settings: both partners purified

**Q.** What does the source list for FAM-labelled 167-bp dsDNA?
**A.** Kd [1]: 35.1 µM; Kd [2]: 13.3 µM; Kd [3]: 11.5 µM

B1: RBBP5 404-538 (protein)
chain: IAPEVEDPEENPYGPPPDAVQTSLMDEGASSEKKRQSSADGSQPPKKKPKTTNIELQGVPNDEVHPLLGVKGDGKSKKKQAGRPKGSKGKEKDSPFKPKLYKGDRGLPLEGSAKGKVQAELSQPLTAGGAISELL
**Q.** Which Kd [4] does the source give for B1 here?
**A.** 59.8 µM

B2: RBBP5_(393–480) construct (domain or fragment, human, UniProt Q15291 393-480, looked up)
chain: LEDSKALLYLPIAPEVEDPEENPYGPPPDAVQTSLMDEGASSEKKRQSSADGSQPPKKKPKTTNIELQGVPNDEVHPLLGVKGDGKSK
notes: RBBP5, human, residues 393-480; source: Rosetta cells, purified (Ni-NTA, on-beads Ulp1 digestion, SEC)
**Q.** With B2 as the molecule, how does the Kd [4] read?
**A.** 20.3 µM

**Q.** Does B2 bind [5]?
**A.** binds

B3: RBBP5 390-474 (protein)
chain: DEELEDSKALLYLPIAPEVEDPEENPYGPPPDAVQTSLMDEGASSEKKRQSSADGSQPPKKKPKTTNIELQGVPNDEVHPLLGVK
**Q.** With B3 as the molecule, how does the Kd [4] read?
**A.** 11.7 µM

**Q.** What does the source list for B4?
**A.** Kd [6]: 4.3 µM; Kd [7]: 5.2 µM

B5: RBBP5_(390–480d) (C-terminal distal region 390–480 with the 422–443 loop deletion) (domain or fragment, human, UniProt Q15291 390-480, looked up)
chain: DEELEDSKALLYLPIAPEVEDPEENPYGPPPDGSQPPKKKPKTTNIELQGVPNDEVHPLLGVKGDGKSK
notes: RBBP5, human, residues 390-480 with the loop 422-443 deleted; also called RBBP5_(CTDM); C-Terminal Distal Minimized; source: Rosetta cells, purified (Ni-NTA, on-beads Ulp1 digestion, SEC)
**Q.** Does B5 bind [5]?
**A.** binds

**Q.** Does B5 bind [8]?
**A.** binds

B6: RBBP5_(390–480d) (C-terminal distal region 390–480 with the 422–443 loop deletion), Q15291 L399A; L400A; I457A; L459A (protein)
chain: DEELEDSKAAAYLPIAPEVEDPEENPYGPPPDGSQPPKKKPKTTNAEAQGVPNDEVHPLLGVKGDGKSK
**Q.** With B6 as the molecule, how does the Kd [9] read?
**A.** 369 µM

B7: RBBP5390-480d I457/L459A (protein)
chain: DEELEDSKALLYLPIAPEVEDPEENPYGPPPDGSQPPKKKPKTTNAEAQGVPNDEVHPLLGVKGDGKSK
**Q.** B7 was tested. Which Kd [10] did it give?
**A.** 108 µM

B8: RBBP5_(CTDM) (RBBP5_(390–480d)) L470A (domain or fragment, human, UniProt Q15291 390-480, looked up)
chain: DEELEDSKALLYLPIAPEVEDPEENPYGPPPDGSQPPKKKPKTTNIELQGVPNDEVHPALGVKGDGKSK
notes: RBBP5, human, residues 390-480 with the loop 422-443 deleted, L470A; source: Rosetta cells, purified (Ni-NTA, on-beads Ulp1 digestion, SEC)
**Q.** Which Kd [9] does the source give for B8 here?
**A.** 19.1 µM

**Q.** Does B8 bind [5]?
**A.** binds

B9: RBBP5_(CTDM) (RBBP5_(390–480d)) L399A (domain or fragment, human, UniProt Q15291 390-480, looked up)
chain: DEELEDSKAALYLPIAPEVEDPEENPYGPPPDGSQPPKKKPKTTNIELQGVPNDEVHPLLGVKGDGKSK
notes: RBBP5, human, residues 390-480 with the loop 422-443 deleted, L399A; source: Rosetta cells, purified (Ni-NTA, on-beads Ulp1 digestion, SEC)
**Q.** For B9, which Kd [5] is on record?
**A.** ~70 µM

**Q.** And the “fold decrease in affinity against wild-type RBBP5_(CTDM)” value [5]?
**A.** ~13 fold

B10: RBBP5_(CTDM) (RBBP5_(390–480d)) I457A (domain or fragment, human, UniProt Q15291 390-480, looked up)
chain: DEELEDSKALLYLPIAPEVEDPEENPYGPPPDGSQPPKKKPKTTNAELQGVPNDEVHPLLGVKGDGKSK
notes: RBBP5, human, residues 390-480 with the loop 422-443 deleted, I457A; source: Rosetta cells, purified (Ni-NTA, on-beads Ulp1 digestion, SEC)
**Q.** Does B10 bind [5]?
**A.** binds

B11: RBBP5_(CTDM) (RBBP5_(390–480d)) L459A (domain or fragment, human, UniProt Q15291 390-480, looked up)
chain: DEELEDSKALLYLPIAPEVEDPEENPYGPPPDGSQPPKKKPKTTNIEAQGVPNDEVHPLLGVKGDGKSK
notes: RBBP5, human, residues 390-480 with the loop 422-443 deleted, L459A; source: Rosetta cells, purified (Ni-NTA, on-beads Ulp1 digestion, SEC)
**Q.** Does B11 bind [5]?
**A.** binds

B12: RBBP5_(CTDM) (RBBP5_(390–480d)) L400A (domain or fragment, human, UniProt Q15291 390-480, looked up)
chain: DEELEDSKALAYLPIAPEVEDPEENPYGPPPDGSQPPKKKPKTTNIELQGVPNDEVHPLLGVKGDGKSK
notes: RBBP5, human, residues 390-480 with the loop 422-443 deleted, L400A; source: Rosetta cells, purified (Ni-NTA, on-beads Ulp1 digestion, SEC)
**Q.** B12 was tested. Which Kd [5] did it give?
**A.** ~70 µM

**Q.** What about the “fold decrease in affinity against wild-type RBBP5_(CTDM)” value [5] of the same molecule?
**A.** ~13 fold

B13: RBBP5 C-terminal construct (390–480) (domain or fragment, human, UniProt Q15291 390-480, looked up)
chain: DEELEDSKALLYLPIAPEVEDPEENPYGPPPDAVQTSLMDEGASSEKKRQSSADGSQPPKKKPKTTNIELQGVPNDEVHPLLGVKGDGKSK
notes: RBBP5, human, residues 390-480; also called RBBP5_(390–480); source: Rosetta cells, purified (Ni-NTA, on-beads Ulp1 digestion, SEC)
**Q.** What does the source list for B13?
**A.** Kd [4]: 7.5 µM; binding result [5]: binds

B14: RBBP5 C-terminal distal region (residues 381–538) (domain or fragment, human, UniProt Q15291 381-538, looked up)
chain: DPIAAFCSSDEELEDSKALLYLPIAPEVEDPEENPYGPPPDAVQTSLMDEGASSEKKRQSSADGSQPPKKKPKTTNIELQGVPNDEVHPLLGVKGDGKSKKKQAGRPKGSKGKEKDSPFKPKLYKGDRGLPLEGSAKGKVQAELSQPLTAGGAISELL
notes: also called RBBP5CTD; source: Rosetta cells, purified (Ni-NTA, on-beads Ulp1 digestion, SEC)
**Q.** How did the Kd [4] turn out when B14 was run?
**A.** 9.7 µM

**Q.** What about the Kd [11] of the same molecule?
**A.** 9.7 µM

**Q.** What about the Kd [12] of the same molecule?
**A.** 24.6 µM

**Q.** What about the Kd [13] of the same molecule?
**A.** 6.8 µM

B15: RBBP5 390-467 (protein)
chain: DEELEDSKALLYLPIAPEVEDPEENPYGPPPDAVQTSLMDEGASSEKKRQSSADGSQPPKKKPKTTNIELQGVPNDEV
**Q.** Which Kd [4] does the source give for B15 here?
**A.** 17.3 µM

B16: RBBP5 381-480 (protein)
chain: DPIAAFCSSDEELEDSKALLYLPIAPEVEDPEENPYGPPPDAVQTSLMDEGASSEKKRQSSADGSQPPKKKPKTTNIELQGVPNDEVHPLLGVKGDGKSK
**Q.** B16 was tested. Which Kd [4] did it give?
**A.** 9.6 µM
